# Target: wasl_bovin WASL (UniProt Q95107)
# Sequence (Q95107 whole entry): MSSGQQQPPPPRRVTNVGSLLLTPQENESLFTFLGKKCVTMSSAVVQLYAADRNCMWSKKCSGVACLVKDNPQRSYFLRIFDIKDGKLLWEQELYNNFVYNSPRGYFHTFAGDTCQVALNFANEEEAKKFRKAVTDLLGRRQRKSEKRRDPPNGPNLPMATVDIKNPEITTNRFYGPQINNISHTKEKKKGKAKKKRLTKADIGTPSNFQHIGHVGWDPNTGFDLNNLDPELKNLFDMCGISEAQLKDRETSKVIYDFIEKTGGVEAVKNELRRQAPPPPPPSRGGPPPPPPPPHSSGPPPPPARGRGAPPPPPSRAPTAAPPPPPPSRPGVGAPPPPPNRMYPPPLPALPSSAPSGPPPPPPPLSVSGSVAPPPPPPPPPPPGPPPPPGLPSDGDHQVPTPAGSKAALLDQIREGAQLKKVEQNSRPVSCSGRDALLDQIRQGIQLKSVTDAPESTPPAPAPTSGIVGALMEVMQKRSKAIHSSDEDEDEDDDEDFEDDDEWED
# Chain of Src substrate cortactin (Mus musculus), Q60598 Y466D;Y482D (Q60598 whole entry Y466D/Y482D): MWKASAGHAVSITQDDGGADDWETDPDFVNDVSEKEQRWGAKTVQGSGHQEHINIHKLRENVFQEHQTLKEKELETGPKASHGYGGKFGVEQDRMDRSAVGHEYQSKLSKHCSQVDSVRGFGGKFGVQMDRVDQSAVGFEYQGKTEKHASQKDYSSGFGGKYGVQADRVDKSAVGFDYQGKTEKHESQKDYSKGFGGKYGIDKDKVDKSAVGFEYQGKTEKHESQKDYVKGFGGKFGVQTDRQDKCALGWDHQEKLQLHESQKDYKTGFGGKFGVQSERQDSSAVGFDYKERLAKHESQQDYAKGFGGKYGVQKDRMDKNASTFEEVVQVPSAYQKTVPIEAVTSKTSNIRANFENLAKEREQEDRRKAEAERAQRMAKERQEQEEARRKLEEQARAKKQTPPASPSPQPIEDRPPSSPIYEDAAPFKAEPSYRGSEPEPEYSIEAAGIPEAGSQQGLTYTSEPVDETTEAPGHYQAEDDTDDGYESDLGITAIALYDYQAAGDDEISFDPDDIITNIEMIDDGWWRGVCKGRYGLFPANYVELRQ
# Chain of Src substrate cortactin (Mus musculus), Q60598 S405D;P416D;Y466D;Y482D (Q60598 whole entry S405D/P416D/Y466D/Y482D): as the sequence (Q60598 whole entry Y466D/Y482D) above, with S405D, P416D counted along it
# Chain of Src substrate cortactin (Mus musculus), Q60598 S405D;S418D (Q60598 whole entry S405D/S418D): as the sequence (Q60598 whole entry Y466D/Y482D) above, with S405D, S418D, D466Y, D482Y counted along it
# Chain of Src substrate cortactin (Mus musculus), Q60598 W525K (Q60598 whole entry W525K): as the sequence (Q60598 whole entry Y466D/Y482D) above, with D466Y, D482Y, W525K counted along it
row,effect of a mutation on the interaction,Substance
1,increasing interaction,"Src substrate cortactin (Mus musculus), Q60598 S405D;S418D"
2,decreasing interaction,"Src substrate cortactin (Mus musculus), Q60598 S405D;P416D;Y466D;Y482D"
3,disrupting interaction,"Src substrate cortactin (Mus musculus), Q60598 W525K"
4,decreasing interaction,"Src substrate cortactin (Mus musculus), Q60598 Y466D;Y482D"

# — IntAct's records for PubMed 15169891
